Biological target: T1, Rat Serum Albumin (rat, UniProt P02770 25-608)
T1 construct: Bought purified serum albumin; coupled to CM5 chips for BiaCore; also called RSA; rat SA
Assay: SPR (BiaCore)

T1 sequence (P02770 25-608 limits assumed): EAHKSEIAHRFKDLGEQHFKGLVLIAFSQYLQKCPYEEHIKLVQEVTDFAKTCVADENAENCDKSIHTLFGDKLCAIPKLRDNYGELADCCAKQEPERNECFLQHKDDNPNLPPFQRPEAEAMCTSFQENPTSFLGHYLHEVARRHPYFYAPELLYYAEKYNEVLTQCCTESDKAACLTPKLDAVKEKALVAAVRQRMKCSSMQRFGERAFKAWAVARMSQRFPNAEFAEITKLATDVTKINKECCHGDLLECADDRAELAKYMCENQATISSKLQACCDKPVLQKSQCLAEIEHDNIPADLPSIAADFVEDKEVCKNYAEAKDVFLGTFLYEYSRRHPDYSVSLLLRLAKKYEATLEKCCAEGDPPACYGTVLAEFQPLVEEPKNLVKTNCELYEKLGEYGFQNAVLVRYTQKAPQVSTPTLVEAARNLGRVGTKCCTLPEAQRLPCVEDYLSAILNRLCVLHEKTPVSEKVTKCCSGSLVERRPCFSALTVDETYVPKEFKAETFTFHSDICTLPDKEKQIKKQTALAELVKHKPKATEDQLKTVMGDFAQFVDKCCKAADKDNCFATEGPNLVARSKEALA

B1: DOM7h-11-12/DOM1m-21-23 fusion DMS number 5516 (other)
chain: EVQLLESGGGLVQPGGSLRLSCAASGFTFNRYSMGWLRQAPGKGLEWVSRIDSYGRGTYYEDPVKGRFSISRDNSKNTLYLQMNSLRAEDTAVYYCAKISQFGSNAFDYWGQGTQVTVSSASTSGPSDIQMTQSPSSLSASVGDRVTITCRASRPIGTMLSWYQQKPGKAPKLLILFGSRLQSGVPSRFSGSGSGTDFTLTISSLQPEDFATYYCAQAGTHPTTFGQGTKVEIKRAAAEQKLISEEDLN
notes: DOM1m-21-23 - ASTSGPS - DOM7h-11-12 - myc tag; also called DMS5516
  fold decrease in affinity against the unfused ALBUDAB: 2 fold

B2: DOM7h-11-15/DOM1m-21-23 fusion DMS number 5517 (other)
chain: EVQLLESGGGLVQPGGSLRLSCAASGFTFNRYSMGWLRQAPGKGLEWVSRIDSYGRGTYYEDPVKGRFSISRDNSKNTLYLQMNSLRAEDTAVYYCAKISQFGSNAFDYWGQGTQVTVSSASTSGPSDIQMTQSPSSLSASVGDRVTITCRASRPIGTMLSWYQQKPGKAPKLLILAFSRLQSGVPSRFSGSGSGTDFTLTISSLQPEDFATYYCAQAGTHPTTFGQGTKVEIKRAAAEQKLISEEDLN
notes: DOM1m-21-23 - ASTSGPS - DOM7h-11-15 - myc tag; also called DMS5517; DOM1m21-23-DOM7h11-15
  fold decrease in affinity against the unfused ALBUDAB: 2 fold

Reference: US20170298121A1 (GlaxoSmithKline, published 2017)
